Measurements: patent US9109032

Target: EphA3 antigen (UniProt P29320)
Experiment: ELISA

Chain of UniProt P29320 (P29320 21-541 limits assumed): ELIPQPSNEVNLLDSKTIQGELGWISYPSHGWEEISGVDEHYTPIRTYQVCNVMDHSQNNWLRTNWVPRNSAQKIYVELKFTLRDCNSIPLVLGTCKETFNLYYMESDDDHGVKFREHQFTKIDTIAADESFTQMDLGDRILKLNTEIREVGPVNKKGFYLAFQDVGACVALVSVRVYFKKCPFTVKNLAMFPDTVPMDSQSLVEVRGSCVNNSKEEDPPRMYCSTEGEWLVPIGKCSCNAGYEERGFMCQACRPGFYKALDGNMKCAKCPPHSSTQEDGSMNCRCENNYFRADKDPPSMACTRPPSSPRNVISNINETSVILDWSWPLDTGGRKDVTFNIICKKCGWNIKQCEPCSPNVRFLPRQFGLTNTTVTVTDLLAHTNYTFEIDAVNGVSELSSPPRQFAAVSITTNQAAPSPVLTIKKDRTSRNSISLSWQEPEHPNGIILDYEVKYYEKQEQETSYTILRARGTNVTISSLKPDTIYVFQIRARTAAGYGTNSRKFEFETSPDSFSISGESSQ

AFFINITY: 2.5 nM
Substance: monoclonal antibody IIIA4
